Measured values reported in the supplement of paper PMC9170038.

Test system: K4 kissing-loop RNA reporter
Experiment: apparent KD of K4 kissing-loop reporter; higher = weaker reporter binding
Conditions: Eterna round: R107
Protocol: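 RNA-MaP round R107: designed RNA switches with theophylline, tryptophan, arginine or FMN aptamers are transcribed on-chip within common flanks. They are titrated with a labelled K4 kissing-loop RNA reporter in RNA-MaP buffer (100 mM Tris pH 7.5, 80 mM KCl, 4 mM MgCl2), without ligand or with the indicated ligand. Median apparent KD per design.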

[1] = input ligand: theophylline 20 uM
[2] = input ligand: tryptophan 2.4 mM
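Also: bound reporter read as fluorescence of individual clusters on recovered sequencing chips by microscopy, with normalized cluster intensities fitted with a binding model.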

Sequence | apparent KD of K4 kissing-loop reporter (input ligand: FMN 200 uM) | apparent KD of K4 kissing-loop reporter (input ligand: arginine 13.2 mM) | apparent KD of K4 kissing-loop reporter (input ligand: none) | apparent KD of K4 kissing-loop reporter [1] | apparent KD of K4 kissing-loop reporter [2]
UGACUGGACUGAAGGAGCGCUAAACUCCUAGUGAUGUUAGGGAACCGAGACAAAGUCUCGAGGCAGGUAGGUCGCAGUCUAGUCU [FiskerMod 2 - Jieux - Same State - Arginine B] | 295 nM | 253 nM | 307 nM | 359 nM | 288 nM
CUCGUGGGUUUGGGAGGGCUUGUGGGAAGAUAGGAUAUCUAGGGAGGGAGAAGGAUCUAUAGAAUAUAGUGAUGUUAUAUAUGGG [SSFMNA.aA] | 118 nM | 261 nM | 165 nM | 230 nM | 106 nM
CGCAGUGAUGUUGCGAACAUAAUGCAUUCAGAGGAUAUUCGUUUGGGAAGAAGGCUGAAUCGUUUUUCGAGUGAUGUUUGAGGAA [Same State FMN A GF 18] | 106 nM | 88.2 nM | 114 nM | 91 nM | 94.6 nM
CCCAAGGGCGAACCGGUAUGAUCGACGGAUACCAGAGGCGAAAGCCUCCCUUGGCAGCCGGCUGUAGUGAUGUUACACUGGUUCU | 139 nM | 98.9 nM | 168 nM | 186 nM | 143 nM
GGCACUUUUGCUUGGAACCGUCAAGCUCUUUAGGAUAUCUGGAAACAGAGAAGGAAAGACCUACAGAGUGAUGUUCUGCGUGCCU | 332 nM | 133 nM | 273 nM | 183 nM | 144 nM
AUAUAGAGUGAUGUUCAUGAGUAUUUCGAAGGAGCGCUAAAUAAGGCAGGUAGGUCGCGGAAAAUAUAUAUAUAGAUAUAUAUAU [KL-SSArg-A29] | 168 nM | 351 nM | 535 nM | 665 nM | 280 nM
GUAGCACUUGGUAGUGAUGUUACCAAGGACAAGGAUAUCAUCUCAAUGAGAAGGUGUCCUUGGUAACAGCUACGGGAAUAUCCCA [Omei KL FMN A Exc D v2] | 275 nM | 194 nM | 226 nM | 242 nM | 246 nM
UGAUGUUUAGGUCACCCAGUGAUGUUGGAAGGAGCGUGCGAAAGCACAGGUAGGUCGCCAAUCUCCUUGUGACCUGAGCAUCUAA [#SwitchBubble 14 #K4Early] | 976 nM | 787 nM | 1050 nM | 979 nM | 854 nM
UCGAAGGAUGGAAGGAGCGCUCGUCAGCCCUGCGAGUGAUGUUCGUGGGUAAAUAGUCGCGAGCAGGUAGGUCGCCAUCUUGAGC [Ritera] | 128 nM | 111 nM | 130 nM | 111 nM | 116 nM
CGGAUGUAGUGAUGUUAUAUUAGAUGUAGACGAGGACCGGUACGGCCGCCACUCGAAACGGCUGCUAGCGCGUUGCGAGGUGUGC [ExTryptoA.Ck] | 341 nM | 525 nM | 1120 nM | 419 nM | 456 nM
CGCAAGCAGCCAGUGAUGUUGGCCGCCUUGCGAGGACCGGUACGGCCGCCACUCGAAGGCGGCUAGUAGUAGUCUGUCUAACGGA [KL-XTryp-A16] | 104 nM | 107 nM | 112 nM | 74 nM | 184 nM
UAUGUACGCGGGUAACGGUACAUCGAGGAAGGAGCGUGCGCAGGCACAGGUAGGUCGCCUCAGCGCACGAGUGAUGUUCGUGGGC [Rere] | 221 nM | 243 nM | 271 nM | 298 nM | 280 nM
GUAGGAUGAGGAGGAGGAUGAAUUACUGAAGGAGCGCAUAGAAAUGCAGGUAGGUCGCGGUAAAGAAGUAUAGUGAUGUUAUAUA [SSArgA.F] | 421 nM | 420 nM | 448 nM | 483 nM | 292 nM
GAUGUCUAGAGAUCAUCUAGACACCUAGAUACCAGCAGAUAUAUCUGCCCUUGGCAGCUAGAACCAGUGAUGUUGGUAUAUGCUC [Theo A SS t3] | 259 nM | 256 nM | 307 nM | 360 nM | 229 nM
CGCUCGAAAAUUAAGUGAGUGAUGUUCACUCGAGGACCGGUACGGCCGCCACUCGUCUUACGUUGAGACACUGCUCGUACUCAUA [theeternabot_exclusion_KL_Trp_A_38] | 683 nM | 674 nM | 900 nM | 722 nM | 498 nM
UGGCGUAGAACCGCCGAAUCGCUGUGAGAAGGAGCGGUAAAAUUGCCAGGUAGGUCGCUCACAGCCUCACAGUGAUGUUGUGGGA [Cequralaza] | 758 nM | 105 nM | 117 nM | 290 nM | 212 nM
AUGCGCGCGGCGGCCGCCACUCGCAUGAGAGUGAUGUUCUCGCCGGGCCCGGAAGGGCCCGGUGUGAGGACCGGGCCGGGCUGCG [#2 Same State - Tryptophan B Attempt #17 (HarryS)] | 121 nM | 73.2 nM | 175 nM | 278 nM | 344 nM
AGCAGUGAUGUUGCAUUUAUAAAGACCGAUACCAGUAUCGAUAGAUACCCUUGGCAGCGGAUUUCCGCAACGACUAGGAAACUAG [Ex Theophylline A K4 13] | 404 nM | 423 nM | 399 nM | 466 nM | 270 nM
UGAUGUUUAGUUCACCCAGUGAUGUUGGAAGGAGCGUGCGAAAGCACAGGUAGGUCGCCAACCUAAAAGUGUCUUGAUUAUCUAA [JR_Nu_ExcArginiA_Sub028] | 352 nM | 317 nM | 444 nM | 460 nM | 289 nM
AAUAAAAUCACGGCCGCCACUGGUACUAGUAUUAGCAGUGAUGUUGCUAUGUAUAAUUUAUUAAAUAGGACCGGGUGAAUAUUUA [#27 K4 Tryptophan B Exclusion] | 326 nM | 281 nM | 238 nM | 233 nM | 208 nM
UGAUACCAGACUGAUACCAGCCAGUGAUGUUGGCUAAUCCGAGAAGGAGUCAAAGACUCCGGCCCUUGGCAGCAGUCUGGUAUCU [TheoBX 4 #SwitchBubble #StaticStem] | 133 nM | 117 nM | 133 nM | 128 nM | 121 nM
GUGCAGUGAUGUUGCACGAGGAAAGACGAUACCAGCCGUAAAUAAGGCCCUUGGCAGCGUAGGCUAGCAUAAGGUAUGCUAGUCC [Atesermace] | 117 nM | 109 nM | 108 nM | 95.5 nM | 100 nM
